Reference: paper PMC7719180, “HDAC8-dependent deacetylation of PKM2 directs nuclear localization and glycolysis to promote proliferation in hepatocellular carcinoma” (Cell Death & Disease, 2020)

Target: T1, GST-PKM2 (GST fusion PKM2) (UniProt P14618 1-531)
T1 construct: Pyruvate kinase M2 (PKM2); also called recombinant GST- PKM2; source: E. coli BL21 (DE3), purified (Glutathione-Sepharose 4B)
Assay: pull-down; GST-PKM2 on glutathione-sepharose beads incubated with His-HDAC8 at 4 °C (overnight in the methods, 3 h in the legend); washed 5 times with PBST; SDS-PAGE and Coomassie Blue staining; GST-vector as control
Settings: both partners purified

T1 sequence (P14618 whole entry, the tested form may be a part): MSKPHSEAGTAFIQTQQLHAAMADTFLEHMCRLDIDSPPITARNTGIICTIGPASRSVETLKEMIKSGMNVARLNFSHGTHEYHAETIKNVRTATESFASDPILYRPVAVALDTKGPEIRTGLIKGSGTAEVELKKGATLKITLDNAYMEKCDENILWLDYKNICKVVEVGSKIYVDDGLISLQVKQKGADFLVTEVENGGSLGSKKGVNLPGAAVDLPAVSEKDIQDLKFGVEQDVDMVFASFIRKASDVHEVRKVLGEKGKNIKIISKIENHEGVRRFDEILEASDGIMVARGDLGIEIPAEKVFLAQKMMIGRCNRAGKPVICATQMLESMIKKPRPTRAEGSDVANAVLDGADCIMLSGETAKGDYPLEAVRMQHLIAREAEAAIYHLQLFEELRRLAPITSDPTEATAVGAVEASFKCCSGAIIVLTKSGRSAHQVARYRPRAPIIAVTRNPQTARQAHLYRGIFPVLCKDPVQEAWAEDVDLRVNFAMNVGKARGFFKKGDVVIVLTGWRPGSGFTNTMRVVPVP

B1: His-HDAC8 (His fusion HDAC8) (enzyme, UniProt Q9BY41 1-377, looked up)
chain: MEEPEEPADSGQSLVPVYIYSPEYVSMCDSLAKIPKRASMVHSLIEAYALHKQMRIVKPKVASMEEMATFHTDAYLQHLQKVSQEGDDDHPDSIEYGLGYDCPATEGIFDYAAAIGGATITAAQCLIDGMCKVAINWSGGWHHAKKDEASGFCYLNDAVLGILRLRRKFERILYVDLDLHHGDGVEDAFSFTSKVMTVSLHKFSPGFFPGTGDVSDVGLGKGRYYSVNVPIQDGIQDEKYYQICESVLKEVYQAFNPKAVVLQLGADTIAGDPMCSFNMTPVGIGKCLKYILQWQLATLILGGGGYNLANTARCWTYLTGVILGKTLSSEIPDHEFFTAYGPDYVLEITPSCRPDRNEPHRIQQILNYIKGNLKHVV
notes: Histone deacetylase 8 (HDAC8)
- binding result: binds
